The data set deals with Escherichia coli TOP10. Description: shrunken log2 fold change of peptide-encoding DNA abundance (4.5 h post-induction vs induction); higher = less antimicrobial activity (less host growth inhibition). To be noted: time post-induction: 4.5 h; library: site-saturation at positions 5, 18, 19, 20.

Results on 125 sequences are retold here after the supplement of paper PMC9112550, “Optimization of the antimicrobial peptide Bac7 by deep mutational scanning” (BMC Biology, 2022).
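Also: peptides expressed intracellularly from a pBAD plasmid library in pooled LB shake-flask culture, induced with 0.3% L-arabinose, DNA abundance read by NGS, three biological replicates, DESeq2 with apeglm shrinkage.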

Regarding RRIRSRPPRLPRPRPRPDAAPRP, the “shrunken log2 fold change” value was determined as 1.05.
As for RRIRCRPPRLPRPRPRPMDKPRP, the “shrunken log2 fold change” value was -0.131.
Regarding RRIRLRPPRLPRPRPRPHQGPRP, the “shrunken log2 fold change” value is -0.0634.
For RRIRRRPPRLPRPRPRPDNAPRP, the “shrunken log2 fold change” value is -0.227.
Regarding RRIRYRPPRLPRPRPRPQAIPRP, the “shrunken log2 fold change” value is -0.066.
With RRIRSRPPRLPRPRPRPCWSPRP, the “shrunken log2 fold change” value worked out at 0.0886.
Take RRIRMRPPRLPRPRPRPFHYPRP: the “shrunken log2 fold change” value was -0.63.
For the sequence RRIRERPPRLPRPRPRPNHQPRP, the “shrunken log2 fold change” value was -0.259.
In the case of RRIRNRPPRLPRPRPRPPQVPRP it was 0.0214; in that of RRIRHRPPRLPRPRPRPFLMPRP, -0.456; in that of RRIRNRPPRLPRPRPRPQNEPRP, -0.331.
Consider RRIRSRPPRLPRPRPRPFDYPRP, for which the “shrunken log2 fold change” value is -0.0792.
For the sequence RRIRERPPRLPRPRPRPEYRPRP, the “shrunken log2 fold change” value was -0.00146.
For the sequence RRIRQRPPRLPRPRPRPVHAPRP, the “shrunken log2 fold change” value was 0.0261.
For RRIRFRPPRLPRPRPRPTTQPRP, the “shrunken log2 fold change” value is 0.376.
For the sequence RRIRLRPPRLPRPRPRPRMRPRP, the “shrunken log2 fold change” value stood at 0.667.
In the case of RRIRMRPPRLPRPRPRPPTCPRP it was 0.183.
Turning to RRIRQRPPRLPRPRPRPGLDPRP, the “shrunken log2 fold change” value came to 0.255.
To RRIRTRPPRLPRPRPRPITTPRP belongs -0.438; to RRIRERPPRLPRPRPRPFQVPRP, -0.212.
In the case of RRIRERPPRLPRPRPRPFIRPRP, the “shrunken log2 fold change” value was -0.854.
For RRIRGRPPRLPRPRPRPMTGPRP, the “shrunken log2 fold change” value is 0.427.
To RRIRWRPPRLPRPRPRPGVEPRP belongs 0.579; to RRIRMRPPRLPRPRPRPIPWPRP, -0.033; to RRIRERPPRLPRPRPRPLISPRP, -0.0142.
With RRIRARPPRLPRPRPRPNDMPRP, the “shrunken log2 fold change” value is -0.00462.
To RRIRVRPPRLPRPRPRPIDWPRP belongs 0.224; to RRIRNRPPRLPRPRPRPIILPRP, -0.234.
For the sequence RRIRHRPPRLPRPRPRPFRSPRP, the “shrunken log2 fold change” value is -0.000777.
In the case of RRIRGRPPRLPRPRPRPVVCPRP it was 0.812; in that of RRIRIRPPRLPRPRPRPNQIPRP, -0.713; in that of RRIRNRPPRLPRPRPRPFSGPRP, -0.277.
In the case of RRIRTRPPRLPRPRPRPRDPPRP it was 0.047.
With RRIRRRPPRLPRPRPRPFSMPRP, the “shrunken log2 fold change” value is 0.0721.
With RRIRMRPPRLPRPRPRPCKYPRP, the “shrunken log2 fold change” value was -0.0297.
For the sequence RRIRERPPRLPRPRPRPFIKPRP, the “shrunken log2 fold change” value is -0.16.
To RRIRFRPPRLPRPRPRPACHPRP belongs -0.0466.
Regarding RRIRMRPPRLPRPRPRPETCPRP, the “shrunken log2 fold change” value came to 1.67.
On to RRIRDRPPRLPRPRPRPPKWPRP, for which the “shrunken log2 fold change” value stood at 0.27.
Consider RRIRGRPPRLPRPRPRPIQRPRP, for which the “shrunken log2 fold change” value was found to be 0.0933.
With RRIRLRPPRLPRPRPRPMCGPRP, the “shrunken log2 fold change” value was found to be 0.0137.
As to RRIRSRPPRLPRPRPRPYIKPRP, the “shrunken log2 fold change” value was -0.234.
RRIRERPPRLPRPRPRPLLDPRP: the “shrunken log2 fold change” value was -0.0911.
As to RRIRWRPPRLPRPRPRPMLVPRP, the “shrunken log2 fold change” value was found to be 0.288.
For the sequence RRIRERPPRLPRPRPRPMFYPRP, the “shrunken log2 fold change” value is -0.0786.
To RRIRTRPPRLPRPRPRPWSKPRP belongs -0.0826; to RRIRNRPPRLPRPRPRPSLHPRP, -0.621; to RRIRMRPPRLPRPRPRPHIMPRP, -0.422.
Consider RRIRARPPRLPRPRPRPQFGPRP, for which the “shrunken log2 fold change” value was -0.217.
Take RRIRDRPPRLPRPRPRPGLLPRP: the “shrunken log2 fold change” value is 0.16.
Consider RRIRWRPPRLPRPRPRPRICPRP, for which the “shrunken log2 fold change” value was -0.0691.
In the case of RRIRQRPPRLPRPRPRPSSRPRP, the “shrunken log2 fold change” value is -0.14.
For RRIRHRPPRLPRPRPRPTYNPRP, the “shrunken log2 fold change” value was -0.758.
RRIRARPPRLPRPRPRPNSWPRP: the “shrunken log2 fold change” value turned out to be 0.422.
On to RRIRIRPPRLPRPRPRPDEIPRP, for which the “shrunken log2 fold change” value turned out to be 0.1.
For RRIRARPPRLPRPRPRPFTLPRP, the “shrunken log2 fold change” value was -0.543.
In the case of RRIRQRPPRLPRPRPRPEWCPRP, the “shrunken log2 fold change” value is -0.0929.
To RRIRWRPPRLPRPRPRPQEMPRP belongs -0.0845; to RRIRERPPRLPRPRPRPIFTPRP, -0.195.
As for RRIRQRPPRLPRPRPRPMFAPRP, the “shrunken log2 fold change” value stood at 0.0682.
RRIRWRPPRLPRPRPRPCWKPRP: the “shrunken log2 fold change” value was -0.00256.
Consider RRIRRRPPRLPRPRPRPQILPRP, for which the “shrunken log2 fold change” value worked out at 0.0332.
For the sequence RRIRSRPPRLPRPRPRPSYRPRP, the “shrunken log2 fold change” value was -0.131.
Take RRIRQRPPRLPRPRPRPGYQPRP: the “shrunken log2 fold change” value is -0.164.
In the case of RRIRNRPPRLPRPRPRPDVSPRP it was -0.0754; in that of RRIRLRPPRLPRPRPRPQYTPRP, -0.909; in that of RRIRGRPPRLPRPRPRPPMKPRP, 0.138.
On to RRIRCRPPRLPRPRPRPHEQPRP, for which the “shrunken log2 fold change” value is -0.15.
Take RRIRCRPPRLPRPRPRPSHWPRP: the “shrunken log2 fold change” value is -0.204.
As for RRIRHRPPRLPRPRPRPYFWPRP, the “shrunken log2 fold change” value is -0.258.
To RRIRKRPPRLPRPRPRPFVAPRP belongs 0.115; to RRIRARPPRLPRPRPRPQMLPRP, 1.97; to RRIRFRPPRLPRPRPRPVIHPRP, -0.182.
In the case of RRIRNRPPRLPRPRPRPINCPRP, the “shrunken log2 fold change” value worked out at 0.00363.
To RRIRSRPPRLPRPRPRPGTYPRP belongs -1.16; to RRIRWRPPRLPRPRPRPHCCPRP, -0.124; to RRIRRRPPRLPRPRPRPYWSPRP, -0.353.
Take RRIRRRPPRLPRPRPRPNIPPRP: the “shrunken log2 fold change” value was -0.24.
For the sequence RRIRLRPPRLPRPRPRPYQYPRP, the “shrunken log2 fold change” value is -0.151.
In the case of RRIRGRPPRLPRPRPRPTHCPRP it was 0.433; in that of RRIRPRPPRLPRPRPRPCAGPRP, 0.122; in that of RRIRSRPPRLPRPRPRPVLFPRP, -0.0544.
For RRIRFRPPRLPRPRPRPILFPRP, the “shrunken log2 fold change” value is -0.0517.
Take RRIRHRPPRLPRPRPRPFALPRP: the “shrunken log2 fold change” value is 0.051.
RRIRSRPPRLPRPRPRPWQDPRP: the “shrunken log2 fold change” value was -0.136.
In the case of RRIRQRPPRLPRPRPRPSWRPRP, the “shrunken log2 fold change” value was found to be 0.0854.
As to RRIRQRPPRLPRPRPRPGKPPRP, the “shrunken log2 fold change” value is 0.12.
Take RRIRKRPPRLPRPRPRPRWPPRP: the “shrunken log2 fold change” value was found to be 0.528.
In the case of RRIRSRPPRLPRPRPRPGVNPRP, the “shrunken log2 fold change” value was -0.398.
On to RRIRCRPPRLPRPRPRPQIIPRP, for which the “shrunken log2 fold change” value is -0.853.
To RRIRERPPRLPRPRPRPMPVPRP belongs -0.107; to RRIRERPPRLPRPRPRPTPWPRP, 0.108; to RRIRQRPPRLPRPRPRPKMQPRP, -0.134.
Take RRIRNRPPRLPRPRPRPQKHPRP: the “shrunken log2 fold change” value is -0.227.
In the case of RRIRFRPPRLPRPRPRPCDVPRP, the “shrunken log2 fold change” value was found to be 0.0119.
As for RRIRYRPPRLPRPRPRPAIDPRP, the “shrunken log2 fold change” value was -0.0997.
As to RRIRNRPPRLPRPRPRPEDIPRP, the “shrunken log2 fold change” value was -0.194.
To RRIRMRPPRLPRPRPRPVPRPRP belongs 0.606; to RRIRPRPPRLPRPRPRPHGVPRP, -0.104; to RRIRYRPPRLPRPRPRPRSNPRP, 0.00328.
Turning to RRIRLRPPRLPRPRPRPQDLPRP, the “shrunken log2 fold change” value is -0.0513.
To RRIRRRPPRLPRPRPRPQIFPRP belongs -0.0198.
Regarding RRIRPRPPRLPRPRPRPWCHPRP, the “shrunken log2 fold change” value was -0.563.
Consider RRIRQRPPRLPRPRPRPCPWPRP, for which the “shrunken log2 fold change” value was determined as 0.0978.
For RRIRSRPPRLPRPRPRPPFHPRP, the “shrunken log2 fold change” value was -0.0308.
In the case of RRIRLRPPRLPRPRPRPEVPPRP it was 0.0129.
RRIRARPPRLPRPRPRPDIYPRP: the “shrunken log2 fold change” value worked out at 0.115.
As for RRIRNRPPRLPRPRPRPCSGPRP, the “shrunken log2 fold change” value is -0.242.
On to RRIRKRPPRLPRPRPRPMKAPRP, for which the “shrunken log2 fold change” value is -0.00163.
On to RRIRMRPPRLPRPRPRPHFGPRP, for which the “shrunken log2 fold change” value was found to be 0.0712.
On to RRIRDRPPRLPRPRPRPQGAPRP, for which the “shrunken log2 fold change” value was 0.244.
Consider RRIRRRPPRLPRPRPRPPVAPRP, for which the “shrunken log2 fold change” value came to 0.769.
Turning to RRIRSRPPRLPRPRPRPSNVPRP, the “shrunken log2 fold change” value is -0.47.
In the case of RRIRQRPPRLPRPRPRPGRFPRP, the “shrunken log2 fold change” value was 0.363.
For the sequence RRIRERPPRLPRPRPRPNDKPRP, the “shrunken log2 fold change” value is -0.507.
For RRIRYRPPRLPRPRPRPHNTPRP, the “shrunken log2 fold change” value is -1.28.
In the case of RRIRFRPPRLPRPRPRPMNAPRP it was -0.054; in that of RRIRARPPRLPRPRPRPATPPRP, 0.894; in that of RRIRLRPPRLPRPRPRPSFNPRP, -0.529.
To RRIRVRPPRLPRPRPRPAQQPRP belongs 0.375; to RRIRCRPPRLPRPRPRPEVVPRP, 0.332; to RRIRVRPPRLPRPRPRPSVGPRP, -0.659.
Turning to RRIRDRPPRLPRPRPRPSHAPRP, the “shrunken log2 fold change” value came to 0.0738.
Consider RRIRRRPPRLPRPRPRPDEAPRP, for which the “shrunken log2 fold change” value is 0.376.
Take RRIRFRPPRLPRPRPRPHLKPRP: the “shrunken log2 fold change” value is -0.437.
